Measured values taken from PMC4551932, “Different motif requirements for the localization zipcode element of β-actin mRNA binding by HuD and ZBP1”.
Residue numbers refer to the chain shown, from its start.

Key:
ZBP1 (His-ZBP1) [1] = target: T1, ZBP1 (His-ZBP1) (Rattus norvegicus (rat), UniProt Q8CGX0 1-577); experiment: EMSA; REMSA: 50 mM Tris-HCl pH 7.0, 150 mM NaCl, 5 mM MgCl2, 0.2 mM DTT, 0.25 mg/ml tRNA, 0.25 mg/ml BSA, room temperature 20 min; 20 fmol RNA and 3 pmol protein in 20 ul; settings: protein: recombinant, tags: 6xHis (replaces GST in pGEX), label: biotin at both ends
HuD (GST-HuD) [2] = target: T2, HuD (GST-HuD) (Rattus norvegicus (rat), UniProt O09032 1-385); experiment: as above; settings: protein: recombinant, tags: GST N-terminal (pGEX-2T), label: biotin at both ends
HuD (GST-HuD) [3] = target: T2, HuD (GST-HuD); experiment: competition EMSA; HuD displaces ZBP1 (4 pmol) from zipcode RNA; REMSA: 50 mM Tris-HCl pH 7.0, 150 mM NaCl, 5 mM MgCl2, 0.2 mM DTT, 0.25 mg/ml tRNA, 0.25 mg/ml BSA, room temperature 20 min; 20 fmol RNA and 3 pmol protein in 20 ul; settings: protein: recombinant; tags: GST N-terminal (pGEX-2T); label: biotin at both ends; stem-loop, 16-nt terminal loop (predicted)
ZBP1 (His-ZBP1) [4] = target: T1, ZBP1 (His-ZBP1); experiment: EMSA; apparent Kd; REMSA: 50 mM Tris-HCl pH 7.0, 150 mM NaCl, 5 mM MgCl2, 0.2 mM DTT, 0.25 mg/ml tRNA, 0.25 mg/ml BSA, room temperature 20 min; 20 fmol RNA and 3 pmol protein in 20 ul; settings: protein: recombinant, tags: 6xHis (replaces GST in pGEX), label: biotin at both ends
HuD (GST-HuD) [5] = target: T2, HuD (GST-HuD); experiment: EMSA; no difference from wild type; REMSA: 50 mM Tris-HCl pH 7.0, 150 mM NaCl, 5 mM MgCl2, 0.2 mM DTT, 0.25 mg/ml tRNA, 0.25 mg/ml BSA, room temperature 20 min; 20 fmol RNA and 3 pmol protein in 20 ul; settings: protein: recombinant; tags: GST N-terminal (pGEX-2T); label: biotin at both ends; disrupted structure (predicted)
[6] = stem-loop, 10-nt terminal loop (predicted)

T1 sequence (Q8CGX0 whole entry): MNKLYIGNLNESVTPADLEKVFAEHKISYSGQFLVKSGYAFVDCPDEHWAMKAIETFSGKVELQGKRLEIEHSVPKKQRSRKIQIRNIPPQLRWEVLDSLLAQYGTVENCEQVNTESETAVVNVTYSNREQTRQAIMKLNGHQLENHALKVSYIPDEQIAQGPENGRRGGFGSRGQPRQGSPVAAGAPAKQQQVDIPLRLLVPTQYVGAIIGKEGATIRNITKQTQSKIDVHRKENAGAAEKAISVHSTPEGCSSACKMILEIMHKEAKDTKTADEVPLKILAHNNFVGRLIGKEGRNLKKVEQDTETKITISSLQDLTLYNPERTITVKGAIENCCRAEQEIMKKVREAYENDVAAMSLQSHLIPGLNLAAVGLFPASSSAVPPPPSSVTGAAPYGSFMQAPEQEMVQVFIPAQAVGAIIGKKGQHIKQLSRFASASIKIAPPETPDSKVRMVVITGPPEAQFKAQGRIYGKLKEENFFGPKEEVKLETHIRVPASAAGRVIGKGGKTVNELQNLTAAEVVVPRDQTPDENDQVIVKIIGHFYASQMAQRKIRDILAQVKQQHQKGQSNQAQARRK
T2 sequence (O09032 whole entry): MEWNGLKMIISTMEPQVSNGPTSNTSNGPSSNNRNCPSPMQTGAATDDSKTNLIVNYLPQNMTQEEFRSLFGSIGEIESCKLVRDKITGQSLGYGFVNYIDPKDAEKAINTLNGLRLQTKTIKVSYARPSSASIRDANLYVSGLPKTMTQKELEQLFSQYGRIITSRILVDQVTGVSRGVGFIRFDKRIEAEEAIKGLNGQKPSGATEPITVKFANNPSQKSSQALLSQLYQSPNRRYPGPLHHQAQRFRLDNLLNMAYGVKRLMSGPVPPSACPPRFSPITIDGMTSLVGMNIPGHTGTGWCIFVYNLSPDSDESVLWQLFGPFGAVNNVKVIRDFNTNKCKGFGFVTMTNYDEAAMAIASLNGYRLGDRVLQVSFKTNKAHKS

## CGGACUGUUACUGAGCUGCGUUUUUUUCUUUGACAAAACCUAACUUGC (structured_RNA, ACACCC deleted) [delta-ACACCC zipcode]
ZBP1 (His-ZBP1) [1]; [6]
  binding result: binds
HuD (GST-HuD) [2]; [6]
  binding result: binds

## CGGACUGUUACUGAGCUGCGGACAAAACCUAACUUGC (structured_RNA, ACACCC and UUUCUUU deleted) [delta(ACACCC/U-rich) zipcode]
ZBP1 (His-ZBP1) [1]; altered structure (predicted)
  binding result: no binding
HuD (GST-HuD) [2]; altered structure (predicted)
  binding result: no binding

B1: WT zipcode (rat, 54 nt) (structured_RNA)
RNA: CGGACUGUUACUGAGCUGCGUUUUACACCCUUUCUUUGACAAAACCUAACUUGC
HuD (GST-HuD) [3]
  IC50: 171 nM
ZBP1 (His-ZBP1) [4]; stem-loop, 16-nt terminal loop (predicted)
  Kd: 28.1 nM

B2: AAMTCG zipcode (structure-disrupted mutant) (structured_RNA)
RNA: B1 RNA with A10C, A14G
modifications: structure disrupted; ACACCC and U-rich motifs intact
ZBP1 (His-ZBP1) [4]; disrupted structure (predicted)
  Kd: 315 nM
HuD (GST-HuD) [5]
  binding result: binds

B3: chicken zipcode (structured_RNA)
RNA: ACCGGACUGUUACCAACACCCACACCCCUGUGAUGAAACAAAACCCAUAAAUGC
ZBP1 (His-ZBP1) [4]
  Kd: 78.8 nM
HuD (GST-HuD) [2]
  binding result: no binding
